Bridges are numbered along the chain shown (N, C = ends). Where no end group is shown, it is not given here. [ ]: non-standard residue; d: D form. The star is where a group is joined. Biotin = O=C1N[C@H]2[C@H](CS[C@H]2CCCCC(=O)*)N1; Oic = O=C(O)[C@@H]1C[C@@H]2CCCC[C@@H]2N1; 2Nal = N[C@@H](Cc1ccc2ccccc2c1)C(=O)O; Hyp = O=C(O)[C@@H]1C[C@@H](O)CN1; hSer(lactone) = O=C1OCC[C@@H]1N*; Pip = O=C(O)[C@@H]1CCCCN1; NMeA = CN[C@@H](C)C(=O)O; Sar = CNCC(=O)O
Experiments:
[1] = target: T1, alpha subunit of the human FcεRI receptor expressed on cells (human, UniProt P12319 26-257); assay: inhibition of 125I-IgE binding to CHO cells expressing human FcεRI alpha
T1 construct: whole, on cells; on rat basophil RBL-48 cells in the histamine release assay; also called CHO FcεRI+ cells; cell surface expressed FcεRI
T1 sequence (looked up): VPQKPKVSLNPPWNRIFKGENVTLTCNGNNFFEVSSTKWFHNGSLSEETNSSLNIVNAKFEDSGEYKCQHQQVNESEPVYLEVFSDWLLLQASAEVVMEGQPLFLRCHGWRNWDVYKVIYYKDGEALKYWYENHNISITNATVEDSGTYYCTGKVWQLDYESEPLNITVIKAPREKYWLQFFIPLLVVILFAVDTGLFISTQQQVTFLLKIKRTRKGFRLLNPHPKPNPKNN
Description: (§1) To determine the ability of peptides to inhibit IgE binding to FcεRI, a cell-based binding assay was used with radiolabeled IgE. Chinese hamster ovary cells expressing the alpha subunit of the human FcεRI receptor were cultured overnight in Falcon 96 well microtiter plates at a concentration of 5 ×10^4 cells per well. The following day the cells were rinsed three times with PBS and then once with F12/DMEM. Peptide stocks were reconstituted in 100 mM Hepes buffered water, pH 7.2, at a concentration of 5 mg/mL. Working concentrations of the peptide were diluted in assay buffer (see below). 75 uL of a desired concentration of peptide was added to the top row of a separate 96 well microtiter plate and serially diluted 1:3 in 50 uL of the assay buffer (F12/DMEM, 1% BSA, 0.05% NaN_3 and 0.025 mM Hepes pH 7.2). Starting concentrations ranged from 50–500 uM. Next, 50 uL of the diluted peptide was transferred to the 96 microtiter well plate containing a monolayer of CHO FcεRI+ cells. […] Cells were
Alanine substitutions in IGE063 (SEQ ID NO:49) were used to assess sidechain contributions. The P9A (IGE070, SEQ ID NO:52) substitution had the largest impact with a >500× reduction in binding. […] Clearly the alanine substitutions at G8, P9, W10, G11 and W12 all had major impacts on binding FcεRI.

[2] = target: T2, alpha subunit of the human FcεRI receptor expressed on Chinese hamster ovary cells (human, UniProt P12319 26-257); assay: inhibition of 125I-IgE binding to CHO cells expressing human FcεRI alpha subunit
T2 construct: whole, on cells; also called CHO FcεRI+ cells
T2 sequence (looked up): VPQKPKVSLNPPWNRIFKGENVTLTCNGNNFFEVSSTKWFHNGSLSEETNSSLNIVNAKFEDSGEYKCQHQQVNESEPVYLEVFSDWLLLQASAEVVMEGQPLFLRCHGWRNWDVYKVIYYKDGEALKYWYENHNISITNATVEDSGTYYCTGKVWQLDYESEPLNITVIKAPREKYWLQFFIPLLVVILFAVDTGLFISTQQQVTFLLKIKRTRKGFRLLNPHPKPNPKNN
Description: as §1, with “Cells were […]” for “Cells were”

[3] = target: T3, extracellular domain of the alpha subunit of the human FcεRI (aa 1-176), produced in baculovirus infected … (human, UniProt P12319 26-201, N-linked carbohydrate (NAG on Asn21 seen in the crystal); derivatised with PDEA for thiol coupling to the chip in the biosensor assay); assay: SPR biosensor (BIAcore), peptide over immobilized FcεRIα, steady-state saturation curve, 4-parameter fit
T3 construct: range 1-176; Residues 1-176 are probably counted without the signal peptide; also called FcεRIα; soluble FcεRI
T3 sequence (looked up): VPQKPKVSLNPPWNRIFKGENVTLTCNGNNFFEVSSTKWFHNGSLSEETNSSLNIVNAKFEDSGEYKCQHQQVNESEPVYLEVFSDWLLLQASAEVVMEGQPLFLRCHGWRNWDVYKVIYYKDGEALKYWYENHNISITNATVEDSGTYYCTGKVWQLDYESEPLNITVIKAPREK
Description: *peptide is a dimer. SEQ ID NO: describes each monomer of the dimer. "ava" = amino-valeric acid Several peptides were also tested in a direct-binding assay using a surface plasmon resonance biosensor (Lofas & Johnsson, *J. Chem. Soc. Commun.* 21, 1526–1528 (1990)). FcεRIα, produced in baculovirus infected insect cells, was immobilized by the surface thiol method (BIAcore Methods Manual Supplement 5a, BIAcore, Inc., Piscataway, N.J.). Briefly, receptor was reacted with 2-(2-pyridinyldithio)ethaneamine hydrochloride (PDEA; Natake & Swaisgood, *J. Biochem.* 74, 77–86 (1973)), desalted into 10 mM sodium acetate (pH 4.8) and stored in aliquots at −80° C. Thawed PDEA-receptor was injected over carboxymethyl-dextran (B1 or CM5, BIAcore, Inc.) biosensor chips preactivated with N-ethyl-N'-(3-dimethylaminopropyl)-carbodiimide hydrochloride (EDC) and N-hydroxysuccinimide (NHS), cystamine, and DTT. Following coupling, reactive groups on the chip were quenched with PDEA and ethanolamine. Serial dilutions of peptide in running buffer (phosphate-buffered saline containing 0.05% Tween-20, 0.01% sodium azide) were injected over the immobilized receptor, and the net amount of peptide bound at steady-state was measured as the net change in response (RU) at a point just prior to termination of peptide injection, compared to a running-buffer baseline. Binding affinities (Table 10) are reported as the midpoint ($EC50$) of a 4-parameter fit to the peptide saturation curve. In the case of IGE134 (SEQ ID NOS:), the value shown indicates the Kd calculated from the rate constants, $kon$ and $koff$. The results of binding assays (Table 8) correlate well with those of inhibition assays (Table 7).

## Ac-NLPRCTAGPWGWVCMAAD-NH2 (disulfide 5-14 (inferred), also called E7A) [IGE059]
[1]
  fold reduction in binding (against IGE063): 6 fold

## EIQECTEGPWGWFCVGSG (disulfide 5-14 (inferred), also called peptide of clone g8b.11) [synthetic peptide EIQECTEGPWGWFCVGSG (SEQ ID NO:8)]
[1]
  IC50: 37 µM
  fold improvement in activity over the … (SEQ ID NO:1) peptide: > 4 fold

## Biotin-NLPRCTEGPWGWVCM (disulfide 5-14 (inferred), synthetic) [IGE078]
[2]
  IC50: 3.4 µM

## Ac-NLPRCTEG[Pip]WGWVCM-NH2 (disulfide 5-14, synthetic) [IGE085]
[2]
  IC50: 38.5 µM

## Ac-NLPRCTEG[NMeA]WGWVCM-NH2 (disulfide 5-14, synthetic) [IGE086]
[2]
  IC50: 60 µM

## Ac-NLPRCTEG[Sar]WGWVCM-NH2 (disulfide 5-14, synthetic) [IGE087]
[2]
  IC50: 136 µM

## Ac-EIQECTEGPWGWVCM-NH2 (disulfide 5-14 (inferred), synthetic) [IGE090]
[2]
  IC50: 7.6 µM

## NLPRCTEGPWGWVC-NH2 (disulfide 5-14 (inferred), synthetic) [IGE091]
[2]
  IC50: 12.8 µM

## Ac-NLPRCTEGPWGWVC-NH2 (disulfide 5-14 (inferred), synthetic) [IGE092]
[2]
  IC50: 20 µM

## Ac-NLPRCTEG[Pip]WGWVCM (disulfide 5-14 (inferred), synthetic) [IGE095]
[2]
  IC50: 23 µM

## Ac-NLPRCTEG[NMeA]WGWVCM (disulfide 5-14 (inferred), synthetic) [IGE096]
[2]
  IC50: 44 µM

## Ac-NLPRCTEG[Sar]WGWVCM (disulfide 5-14 (inferred), synthetic) [IGE097]
[2]
  IC50: 84 µM

## Ac-NLPRCTEG[Oic]WGWVCM (disulfide 5-14 (inferred), synthetic) [IGE100]
[2]
  IC50: 364 µM

## Ac-NLPRCTEG[Hyp]WGWVCM (disulfide 5-14 (inferred), synthetic) [IGE101]
[2]
  IC50: 580 µM

## Ac-NLPRCTEGPWGWVCM (disulfide 5-14 (inferred)) [IGE063]
[1]
  IC50: ~1 µM

## NLPRCTEGAWGWVCM (disulfide 5-14 (inferred), also called P9A) [IGE070]
[1]
  fold reduction in binding (against IGE063): > 500 fold

## NLPRCTEGPWGAVCM (disulfide 5-14 (inferred), also called W12A) [IGE073]
[1]
  fold reduction in binding (against IGE063): 65 fold

## NLPRCTEGPWAWVCM (disulfide 5-14 (inferred)) [IGE074]
[1]
  fold reduction in binding (against IGE063): 30 fold

## NLPRCTEAPWGWVCM (disulfide 5-14 (inferred), also called G8A) [IGE079]
[1]
  fold reduction in binding (against IGE063): 256 fold

## Ac-NLPRCTEGP[2Nal]GWVCM (disulfide 5-14 (inferred), synthetic) [IGE103]
[2]
  IC50: 1.2 µM

B1: IGE107 (peptide)
peptide: Ac-NLPCTEGPWGWVCM
modifications: disulfide 4-13 (inferred)
notes: synthetic; As printed it lacks the Arg before the first Cys
[2]
  IC50: 28 µM

## LPRCTEGPWGWVCM-NH2 (disulfide 4-13 (inferred)) [IGE068]
[1]
  fold reduction in inhibition (against IGE063): 3 fold

## Ac-NLPRCTEGPAWGWVCM (disulfide 5-15 (inferred), synthetic) [IGE125]
[2]
  IC50: 259 µM

## Ac-NLPRCTEGPWGWVC[hSer(lactone)] (disulfide 5-14 (inferred)) [IGE133]
[2]
  IC50: 2.5 µM

## PRCTEGPWGWVCM-NH2 (disulfide 3-12 (inferred)) [IGE069]
[1]
  fold reduction in inhibition (against IGE063): 34 fold

## Ac-NLPRCTEGPWGWVC (disulfide 5-14 (inferred)) [IGE082]
[1]
  fold reduction in binding (against IGE063): > 400 fold

B2: IGE083 (peptide)
peptide: ALCPAVCYVGGKALCPDVCYV-NH2
modifications: disulfide 7-15, 3-19; N-terminus assumed
SMILES: CC(C)C[C@H](NC(=O)[C@H](C)N)C(=O)N[C@H]1CSSC[C@@H](C(=O)N[C@@H](Cc2ccc(O)cc2)C(=O)N[C@H](C(N)=O)C(C)C)NC(=O)[C@H](C(C)C)NC(=O)[C@H](CC(=O)O)NC(=O)[C@@H]2CCCN2C(=O)[C@@H]2CSSC[C@H](NC(=O)[C@H](C(C)C)NC(=O)[C@H](C)NC(=O)[C@@H]3CCCN3C1=O)C(=O)N[C@@H](Cc1ccc(O)cc1)C(=O)N[C@@H](C(C)C)C(=O)NCC(=O)NCC(=O)N[C@@H](CCCCN)C(=O)N[C@@H](C)C(=O)N[C@@H](CC(C)C)C(=O)N2
notes: single chain dimer form of IGE089 with Ala17Asp
[3]
  EC50: 1.1 µM

## ALCPAVCYV-NH2 (also: antiparallel disulfide-linked homodimer, interchain C3-C7' and C7-C3', also called IGE037 dimer) [IGE089]
[3]
  EC50: 64 µM

## NLPRCTEGPWGWVCMAAD-NH2 (disulfide 5-14 (inferred), synthetic) [IGE043]
[2]
  IC50: 1.4 µM

Source: patent publication US7101851 (dated 2006)
